Test results as given in the nanobody polyreactivity screen of Harvey et al. (2022).

Assay: yeast display, Sf9 membrane polyspecificity reagent, FACS + sequencing; frameworks hold sequencing errors
Outline: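 Genes from sorted yeast were amplified by colony PCR, read by MiSeq 2 × 250 sequencing and filtered on CDR length. These cells carried a synthetic nanobody library in Saccharomyces cerevisiae BJ5465 and were sorted by FACS into low and high (top ~1%) gates on anti-HA and streptavidin fluorescence. Polyreactivity is labelled according to the gate of origin.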

| Sequence | polyreactivity (PSR sort gate) |
| --- | --- |
| QVQLVESGGGLVQAGGSLRLSCAASGRIFLGHDMGWYRQAPGKERELVATISSSGDSTYYADSVKGRFTISRDNAKNTVYLQMNSLKPEDTAVYYCAVKSTDVPVRGSPYDYWGQGTQVTVSS | low polyreactivity |
| QVQLVESGGGLVQAGGSLRLSCAASGRIFGGNAMGWYRQAPAKERELVAAISKRGGSTYYADSVKGRFTISRDNAKNTVYLQMNSLKPEDTAVDYCAATAYADQGLDYGYWGQGTQVTVSS | high polyreactivity |
| QVQLVESGGGLVQAGGSLRLSCAASGSTFGFYAMGWYRQAPGKERELVAVISSGDSTYYADSVKGRFTISRDNAKKTVYLQMNSLIPEDTAVDYCAKDALVIDGGGGYDYWGQGTQVTVSS | low polyreactivity |
| QVQLEESGGGLVQAGGSLRLSSAASGRTFYDNTMGWYRQSPVKERELVAAISRGGSTYADSVKGRFTISRDNAKNSVYLQMNSLKPEDTAVYYCAAVPRYQYGYWGQGTQVTVSS | low polyreactivity |
| QVQLVESCGCLVQAGGSLRLSCAASGSTFRKYAMGWYRQAPGKEREFVAAITWSTGTTYYADSVKGRFTISRDNAKNTVYLQMNSLKPEDTAVYYCAADSQPPHELYESIEHESWGQGTQVTVSS | low polyreactivity |
| QVQLVESGVGLVQAGGSLRLSCAASGPTFRNNAMVWSRQAPGKERELVAAITSGGSTNYADSVKGRFTISRDNAKNTVYLQMNSLKPEDTAVYYCAKDFWYVTGGWSSGMDYWGQGTQVSVSS | low polyreactivity |
| QVQLVESGGGLVQAGGSLRLSCAASGIIFRLYAMGWYRQAPGKERELVAAISYRGGSTYYADSVKGRFTISRDNAKNTVYLQMNSLKPEDTAVYYCAARNPRYSFYYWGQGTQVTVSS | high polyreactivity |
| QVHLVESGGGLVQAGGSLRLSCAASGIIFYWNPMGWYRQAPGKERELVAAISWSGGSTYYADSVKGRFTISRDNAKNTVYLQMNSLKPEDTAVYYCNAVTTYYPQFRPGAIPGVGYGFWGQGTQVTVSS | low polyreactivity |
| QVQLVESGGGLVQAGGSLRLSCAASGSIFRSYALGWYRQAPGKERELVAAITWSGGRTYYADSVKGRFTISRDNAKNTVYLQMNSLKPEDTAVYYCNADVWWDTWFLDGYDYWGQGTQVTVSS | high polyreactivity |
| QVQLVESGGGLVQAGGSLRLSCAASGSNFYGNAMGWYRQAPGKERELVAAISRSGGRSYYADSVKGRFTISRDNAKNTVYLHMNSLKPEATAVYYCAARQYQATLQYGYYPGYGYWGQGTQVTVSS | high polyreactivity |
| QVQLVESGGGLVQAGGSLRLSCAASGRTFYTNAMGWYRQAPGKERELVAVISRGGTTYYADSVKGRFTISRDNAKNTVYLQMNSLKPEDTAVYYCAKQRPSGESSSQMGSWGQGTQVTVSS | low polyreactivity |
| QVQLVESGGGLVQAGGSLRLSCAASGSIFSINTMGWYRQAPRTERELVATITWSVGSTNYADSVKGRFTISRDNAKNSVYLQMNSLKPVDTAVYYCNAESFYDYNYWGEGTQVTVSS | low polyreactivity |
| QVQLVEAGGGLVQAGGSLRLSCAASGSTFRRYAMGWYRQAPGKERVLVAAITTRGGSTYYADSVKGRFTISRDNAKNTVYLQMNSLKPEDTAVYYCARDYSTYLRTAGDYWGQGTQVTVSS | low polyreactivity |
| QVQLVESGGGLVQAGGSLRLSCAASGIIFSSYAMGWYRQAPGKERELVADISYTGGSTYYADSVKGRFTISRDNAKNTVYLQMNSLKPEDTAVYYCAAGVYLHYSVDYWGQGTQVTVSS | low polyreactivity |
| QVQLVESGGGLVQAGGSLRLSCAASGRIFLSYAMGWYRQAPGKEREFVAAITSSGGSTSYADSVKGRFTISRDNAKNTVYLQMNSLKPEDTAVYYCNARAYIFGQLKYDYWGQGTQVTVAS | low polyreactivity |
| QVQLVESGGGLVQAGGSLRLSCAASGSTFTVNGMGWYRQAPGKERELVAAITWGGGSTYYADSVKGRFTISRDNAKNTVYLQMNSLKPEDTAVYYCAADDGYLFDYWGQGTQVTVSS | low polyreactivity |
| QVQLVESGGGLVQAGGSLRLSCAASGSTFGGNAMGWYRQAPGKERELVAAISRSGTTTYYADSVKGRFTISRDNAKNTVYLQMNSLKPEDTAVYYCAADYVRSQYDYWGQGTQVTVSS | high polyreactivity |
| QVQLVESGGGLVQAGGSLRLSCAASGITFPLYAMGWYRKAPGKERELVATISGRGGSTYYADYVKGRFTISRDNAKNTVYLQMNSLIPEDTAVYYCNADFRSPYFLLSWYHSGDYWGLGTQVTVSS | low polyreactivity |
| QVQLLESGGGLVQAGGTLRLSCAASGRTFYVNAMGWYRQAPGKERELVAAIRRGGSPNYADSVKGRFTISRDNEQNTVYLQMNSLKPEDTAVFYCNASPCGRKQYISPYDYRGQGTQVTVSS | low polyreactivity |
| QVQLVESGGGLVQAGGSLRLSCAASGITIYDYTMGWYRQAPGKERELVAVITSAGSTYYADSVKGRFTISRDNAKNTVYLQMNSLKPEDTAVYYCAAVIVSRGRKYRLDYWGQGTQVTVSS | high polyreactivity |
| QVQLVESGGGLVQAGGRLRLSCAASGFTFYYYAMGWYRQAPGKEREMVAAISRSGGSTYYADSVKGRFTISRDNAKNTVYLQMNSLKPEDTAVYYCNTLRRTWFQENDYWGQGTQVTVSS | high polyreactivity |
| QVQLVESGGGLVQAGGSLRLSCAASGTFFIYAMGWYRQAPGKERELVATISTGGSTNYADSVKGRFTISRDNAKNTVYLQMNSLKPEDTAVYYCAAEWLYPHDGGYPRPMDYWGQGTQVTVSS | low polyreactivity |

| Sequence | polyreactivity (PSR sort gate) |
| --- | --- |
| QVQLVESGGGLVQAGGSLRLSCAASGSTFYRNAMGWYRQAPGKEREFVAAISFRGGGTYADSVKGRFTISRDNAKNTVYFQMNILKPEDTAVYYCAADLLSYRGRYEYWGQGTQVTVSS | low polyreactivity |
| QVQLVESGGGLVQAGGSLRLSCAASGLTLFYYVMGWYRQAPGKERELVAANTTSGGRTYYADSVKGRFTISRDNAKHTVYLQMNSLKPEDTAVYYCAAQSSVAYIHTPTYRYDYWGQGTQVTVSS | high polyreactivity |
| QVQLVESGGGLVQAGGSLRLSCAASGFTFGYYTMGWYRQAPGKERELVAAISWSGGSTYYADSVKGRFTISRDNAKNTVYLQMNSLKPEDTAVYYCAAYRYGYDYWGQGTQVTVSS | high polyreactivity |
| QVQLVESGGGLVQAGGSLRLSCAASGSTCDYNAMGWYRQAPGKERELVAAITSTGGNTYYADSVKGRFTISRDKAKNTVYLQMNSLKPADTAVYYCNKDVARYPYGKFDYWGQGTQVTVSS | low polyreactivity |
| QVQLVESGRGLVQAGGSLRLSCAASGSIFKYYAMGWYRQAPGKERELVAAITSGGSTSYADSVKGRFTISRDNAKNTVYLQMNSLKPEDTAVYYCAAELRSWRSYGSVWRWYYYWGQGTQVTVSS | high polyreactivity |
| QVQLVESGGGLVQAGGSLRLSCAASGYTFYRYAMGWYRQAPGKERELVAGISRDGGSTYYADSVKGRFTISRDNAKNTVYLQMNSLKPEDTAVYYCAADKTRYRLGRDYWGQGTQVTVSS | low polyreactivity |
| QVQLVESGGGLVQAGGSLRLSCAASGFTYRSYTMGWYRQAPGKERELVAAITSRGTSTYYADSVKGRFTISRDNAKNTVYLQMNSLKPEDTALYYCNAARPGKNYDSWGQGTQVTVSS | high polyreactivity |
| QVQLVESGGGLVQAGGSLRLSCAASGRIFGRYTMGWYRQAPGKERELVAAISARGGSTYYADSVKGRFTISRDNAKNTVYLQMNSLKPEDTAVYYCDAEYVVWYLDRFNYWGQGTQVTVSS | high polyreactivity |
| QVQLVESGGGLVQAGGSLRLSCAASGNTLYQYAMGWYRQAPGKERELVASITWSGSSTYYADSVKGRFTISRDNAKNTVYVQMNSLKPEDPAVYYCAAYGYHRDYLYDYWGQGTQVTVSS | low polyreactivity |
| QVQLVESGGGLVQAGGSLRLSCAASGSTFWPYAMGWYRQAPGKERELVAAIRVIGGSTYYADSVKGRFTISRDNAKNSVYLQMNSLKPEDTAVYYCNAYRPGGARFYARYRYDYWGQGTQVTVSS | low polyreactivity |
| QVQLVESGGGLVQARRSLRLSCAASGITFVFYTMGWYRQAPGKERELVAAITSSGVRTSYADSVKGRFTISRDNAMNTVYLQMNSLKPEDTAVYYCAAKPTYVHKPGYNYWGQGTQVTVSS | high polyreactivity |
| QVQLVETRGGLVQAGGILRFSCAASGFTFSSNDMGWYRQAPAKEREFVAVIDSGDITNYADSVKGRFTISRDNAKNTVYLQMNSLKPEDTAVYYCAARYYAAGIGSRYDYWGQGTQVTVSS | high polyreactivity |
| QVQLVESGGGVVQAGGTLRLSCAASGSTFPKYAMGWYRQAPGKERELVAAISLSGVRTYYADSVKGRFTISRDNAKNTVYLQMTSLKPEDTAVYYCNAVFDRYPYRYDYWGQGTQVTVSS | high polyreactivity |
| QVQLVESGGGLVQAGGSLRISCAASGITFEGYAMGWYRQAPGKESEFVAAITSTGTSTRYADSVKGRFTISRDNAKNTVYLQMNSLKPEDTAVYYCAAVARRLNTGKYYYWGQGTQVTVSS | high polyreactivity |
| QVQLVESGGGLVQAGGSLRLSCAASGRIFYWNPMGWYRQAHGKERELVAAISWSGGSTYYADSVKGRFTISRDNAKNTVYLQMNRLKPEDTAVYYCARKYRSPISALMTGDYWGQGTQVTVSS | low polyreactivity |
| QVQLVESGGGLVQAGGSLRLSCAASGFIFWVNAMGWYRKAPGKERELVAAISSSYGSTYYADYVKGRFSISRDNAKNTVYLQMNRLKPEDTAVCYSAARWLGHFYPFFLQGLSGFDYWGQGTHVTVSS | low polyreactivity |
| QVQLVESGGGLVQAGGSLRLSSAATGRTFASYAMGWYRPAPGKERELVAVITRGVRTYYADSVKGRFTISRDNAKNTVYLEMNSLKPEDTAVYYCAKERYNANYDTSLYDYWGQGTQVTVSS | low polyreactivity |
| QVQLVESGGGLVQAGGSLRLSCAASGFTFYDNAMGWYRQAPGKERELVAAISSSGTRTYYADSVKGRFTISRDNAKNTVYLQMNSLKPEDTAVYYCAARGQAYSGDRMYYWGQGTQVTVSS | high polyreactivity |
| QVQRVESGGGLVQAGGSLRLSCAASGSIFNSNAMGWYRLAHGKERELVAAINWRGGSTYYADSVKGRFTISRDNAKNTVYLQMNSLKPEDSAVYYCAAVGWFHDYYWGQGTQLTVSS | high polyreactivity |
| QVQLVESGGGLVQAGGSLRLRCAASGITFSWYDMGWYRQAPGKERELVAAISWSGGRTYYADSVKGRFTISRDNAKNTVYLQMNSLKPEDTAVYYCNAVGVGYVGYLYGYLGQGTQVTVSS | high polyreactivity |
| QVQLVESGGGLVQAGGSLPLTCAASGLTFYDYPMGWYRKATVKERELVAAIRRSGTRTYYADSVKGRFTISRDYAKNTVYLQMNSLKPEDTAVYYCNTVRRLKRYSSYGHDYWGQGTQVTVSS | high polyreactivity |
